Patent US11110115B2, “Nucleic acid molecule with anti-inflammatory and anti-coagulant and organ-protective properties” (APTAHEM AB, priority 2017, dated 2021)
Entries after “also recorded” stand apart in the source; their conditions may differ.

Experiments:
[1] = Expanded toxicology panel of serum in LPS-induced shock; type: in vivo, C57BL/6 mice; conditions: blood at Hour 28
Method: In this study, female C57BL/6 mice of 10-12 weeks old (Taconic Biosciences) were used. Animals had free access to autoclaved and acidified drinking water. Animals were housed under standard laboratory conditions, air conditioned and filtered with adequate fresh air supply. Animals were kept in a climate-controlled environment. Lipopolysaccharide (LPS) from E. coli (O111:B4) was diluted in PBS. SEQ ID NO:2 was stored in powder form at 4° C. until use. Powder was added to saline and vortexed into solution to prepare SEQ ID NO:2 stock solution. […] For all other groups, LPS was injected intraperitoneally at 10 mg/kg. Mice were intravenously injected 15 minutes and 60 minutes after LPS administration with SEQ ID NO:2 at concentrations of 10, 25, 50 and 100 mg/kg. […] Blood collected at Hour 28 was analyzed for expanded toxicology panel performed by IDEXX Laboratories, Inc. (N. Grafton, Mass.). We attempted to collect enough blood to run each analysis 5 times for each group. The extended toxicology analysis measured concentrations of AST, ALT, creatine kinase, albumin, total protein, BUN, cholesterol, glucose, phosphorus, triglycerides, HDL cholesterol, bile acid, LDL cholesterol, total bilirubin, GGT, bilirubin conjugated, and creatinine. Here, results are shown for AST, ALT, creatine kinase, albumin, total protein, BUN, cholesterol, phosphorus, triglycerides, cholesterol, and creatinine.

[2] = Comparable ex vivo APTT study, human
[3] = LPS-induced mortality, survival assay; type: in vivo, C57BL/6 mice; conditions: 72 hours
Method: (§1) In this study, female C57BL/6 mice of 10-12 weeks old (Taconic Biosciences) were used. Animals had free access to autoclaved and acidified drinking water. Animals were housed under standard laboratory conditions, air conditioned and filtered with adequate fresh air supply. Animals were kept in a climate controlled environment.
Lipopolysaccharide (LPS) from E. coli (O111:B4) was diluted in PBS.
SEQ ID NO:2 was stored in powder form at 4° C. until use. Powder was added to saline and vortexed into solution to prepare SEQ ID NO:2 stock solution.
For all other groups, LPS was injected intraperitoneally at 10 mg/kg. Mice were intravenously injected 15 minutes and 60 minutes after LPS administration with SEQ ID NO:2 at concentrations of 10, 25, 50 and 100 mg/kg. Except group 6, which was intravenously injected once at 15 minutes and once at 120 minutes after LPS administration.
When high doses of LPS are administered, animals will suffer LPS-induced shock and mortality may be observed. For 72 hours after LPS injection, mice were checked for mortality several times each day. All surviving mice were euthanized at the end of the study (day 3).

[4] = system: IL-10, TNF, IL-6 and IL-1β in serum; assay: LPS-induced cytokine production model, serum cytokines; type: in vivo, C57BL/6 mice; conditions: 2 h after LPS
Method: as §1, with “Female” for “In this study, female”, “mice” for “mice of 10-12 weeks old”, “8 weeks of age at the start of the study.” for “used.”
SEQ ID NO:2 (Biospring) (100 mg) was dissolved in 5 ml saline to form a stock solution of 20 mg/ml. Vehicle is saline solution.
Dexamethasone stock was prepared by mixing dexamethasone and beta-cyclodextrin at a 4:96 ratio, solubilized in PBS at 2 mg dexamethasone/mL and stored at −20° C. Dosing solution of dexamethasone was prepared by diluting the stock solution to 1 mg/mL with PBS. Dexamethasone administered at 5 to 10 mg/kg, i.p. is used as a positive control for suppression of the immune response.
Two hours after LPS injection mice were bled and serum was isolated and added to EDTA in Gel Clot Activator tubes. At least 100 μl has been analysed. The concentration of IL-10, TNF, IL-6 and IL-1β in serum was measured using eBioscience's Luminex kit, according to manufacturer's protocol. A single analysis was performed on every sample.

[5] = 50 mg/kg at 15 and 60 min after LPS
[6] = 50 mg/kg at 60 and 120 min after LPS
[7] = groups treated i.v. with SEQ ID NO:2 after LPS
[8] = overall, groups treated i.v. with SEQ ID NO:2
[9] = 25 mg/kg i.v., not statistically significant
[10] = 50 mg/kg i.v., not statistically significant

B1: SEQ ID NO:2: nucleic acid sequence of SEQ ID NO:1 in which each C and U is fluorinated to increase stability in plasma (nucleic acid)
chain: GGGAAUUCGAGCUCGGUACCAACAAUACGACUACACCAUCAAAAGUAUUAUCUUGCAUCGAAGGUUGGCACGUAGCAAGCUCUGCAGUCG
modifications: fluorinated C and U; (6)..(7) uracil is fluorinated; (8)..(8) cytosine is fluorinated; (12)..(12) cytosine is fluorinated; (13)..(13) uracil is fluorinated; (14)..(14) cytosine is fluorinated; (17)..(17) uracil is fluorinated; (19)..(20) cytosine is fluorinated; (23)..(23) cytosine is fluorinated; (26)..(26) uracil is fluorinated; (28)..(28) cytosine is fluorinated; (31)..(31) cytosine is fluorinated; (32)
- Cholesterol in serum ([1]; 25 mg/kg at 15 and 60 min after LPS): significant improvements
- Cholesterol in serum [1, 5]: significant improvements
- Creatinine in serum [1, 5]: significant improvements
- Creatinine in serum [1, 6]: significant improvements
- Triglycerides in serum [1, 6]: significant improvements
- serum concentration of ALT compared to vehicle treated group [1, 7]: did not reach statistical significance
- serum concentration of AST compared to vehicle treated group [1, 7]: improvements; also recorded: significantly improved
- serum concentration of BUN compared to vehicle treated group [1, 7]: improvements; also recorded: significantly improved
- serum concentration of creatine kinase compared to vehicle treated group [1, 7]: did not reach statistical significance
- serum concentration of phosphorus compared to vehicle treated group [1, 7]: improvements; also recorded: significantly improved
- serum concentration of cholesterol compared to vehicle treated group [1, 8]: significantly improved
- serum concentration of creatinine compared to vehicle treated group [1, 8]: significantly improved
- serum concentration of triglycerides compared to vehicle treated group [1, 8]: significantly improved
- positive effect on APTT [2]: confirmed
- survival compared to vehicle treated mice ([3]; 25 mg/kg i.v. twice after LPS 10 mg/kg i.p.): significantly improved
- survival compared to vehicle treated mice ([3]; 50 mg/kg i.v. twice after LPS 10 mg/kg i.p.): significantly improved
- survival compared to vehicle treated mice ([3]; 100 mg/kg i.v. twice after LPS 10 mg/kg i.p.): significantly improved
- IL-1β concentration in serum compared to vehicle group ([4]; 5 mg/kg i.v.): similar
- IL-6 concentration in serum compared to vehicle group ([4]; 5 mg/kg i.v.): similar
- TNF concentration in serum compared to vehicle group ([4]; 5 mg/kg i.v.): similar
- serum concentration of IL-10, difference to vehicle group ([4]; 25 mg/kg i.v. 5 min before LPS): significant
- IL-1β concentration in serum compared to vehicle group [4, 9]: lower
- IL-6 concentration in serum compared to vehicle group [4, 9]: lower
- TNF concentration in serum compared to vehicle group [4, 9]: lower
- serum concentration of IL-10, difference to vehicle group ([4]; 50 mg/kg i.v. 5 min before LPS): significant
- reduction in IL-1β concentration in serum compared to vehicle group ([4]; 50 mg/kg i.v.): statistically significant
- IL-6 concentration in serum compared to vehicle group [4, 10]: lower
- TNF concentration in serum compared to vehicle group [4, 10]: lower
- serum concentration of IL-10 compared to vehicle group ([4]; SEQ ID NO:2 groups (5, 25, 50 mg/kg i.v.) 5 min before LPS): increase
